Assay [1] addresses T1, human PCSK9 (human, UniProt Q8NBP7 31-692).
T1 construct: also called hPCSK9; huPCSK9
Briefly: PCSK9:EGFA FRET 1, competition.

For assay [2], the target named is T1, human PCSK9. Briefly: PCSK9:LDLR FRET, competition.
The target in assay [3] is T2, rhesus serum albumin (rhesus, UniProt Q28522 17-600).
T2 construct: also called RhSA; Rh-SA
Briefly: direct binding ELISA, albumin coated. For orientation: In an ELISA, binding on a coated surface is turned into a signal by an enzyme label.

Assay [4] has as its target T3, mouse serum albumin (mouse, UniProt P07724 25-608).
T3 construct: also called MSA; MuSA
The experiment in a line: direct binding ELISA, albumin coated.

Assay [5] has as its target T4, human serum albumin (human, UniProt P02768 25-609).
T4 construct: immobilized on chips or coated on plates elsewhere; also called HSA; HuSA
The experiment in a line: direct binding ELISA, albumin coated.

Assay [6] deals with T1, human PCSK9. The experiment in a line: PCSK9:EGFA FRET 2, competition.

IC50 and EC50 data for eleven molecules are collected here from patent publication US20200048328A1 (Bristol-Myers Squibb, published 2020).

B1: PCSK9-PKE2 tandem 4472_E09 (designed binder)
PCSK9 domain: MGVSDVPRDLEVVAATPTSLLISWDAPAEGYGYYRITYGETGGNSPVQEFTVPVSKGTATISGLKPGVDYTITVYAVEFDFPGAGYYHRPISINYRTE
PKE2 domain: GVSDVPRDLEVVAATPTSLLISWDAPAVTVRYYRITYGREVQKYSDLGPLYIYQEFTVPGSKSTATISGLKPGVDYTITVYAVTGSGESPASSKPISINYRTEHHHHHH
modifications: In the real molecule the two parts given here are one polypeptide, joined by the undisclosed linker A. They are written as two chains only because the linker has no letters.
notes: not shown: Linker 'A' joining ...NYRTE of the PCSK9 domain to GVSDV... of the PKE2 domain
On to B1, for which the IC50 (usually the midpoint of a concentration-inhibition curve) came out at 5.81 nM in assay [1], 1.3 nM in assay [2] and 4.81 nM in assay [6]. Besides, the values for the EC50 in assay [3], in assay [4] and in assay [5] were 19.8 nM, 7 nM and 23.8 nM, respectively.

B2: PCSK9-PKE2 tandem 4472_C08 (designed binder)
PCSK9 domain: MGVSDVPRDLEVVAATPTSLLISWDAPAEGYGYYRITYGETGGNSPVQEFTVPVSKGTATISGLKPGVDYTITVYAVEFDFPGAGYYHRPISINYRTE
PKE2 domain: GVSDVPRDLEVVAATPTSLLISWDAPAVTVRYYRITYGREVQKYSDLGPLYIYQEFTVPGSKSTATISGLKPGVDYTITVYAVTGSGESPASSKPISINYRTEHHHHHH
modifications: The real molecule is ONE polypeptide: PCSK9 domain, undisclosed linker 'E' (a code letter, not the residue), PKE2 domain. It is given here as two chains because the linker letters are unknown.
notes: not shown: The inter-domain linker
For B2, the half-maximal inhibitory concentration (IC50) in assay [1] stood at 9.38 nM; in assay [2] it was 1.9 nM; in assay [6], 5.09 nM. For the same molecule, the EC50 (as a rule, the concentration at which the effect is half-maximal) was determined as 25.7 nM in assay [3], 4.8 nM in assay [4] and 40.4 nM in assay [5].

B3: PCSK9-PKE2 tandem 4472_B10 (designed binder)
PCSK9 domain: MGVSDVPRDLEVVAATPTSLLISWDAPAEGYGYYRITYGETGGNSPVQEFTVPVSKGTATISGLKPGVDYTITVYAVEFDFPGAGYYHRPISINYRTE
PKE2 domain: GVSDVPRDLEVVAATPTSLLISWDAPAVTVRYYRITYGREVQKYSDLGPLYIYQEFTVPGSKSTATISGLKPGVDYTITVYAVTGSGESPASSKPISINYRTEHHHHHH
modifications: The real molecule is ONE polypeptide: PCSK9 domain, undisclosed linker J, PKE2 domain. It is given here as two chains because the linker letters are unknown.
notes: as for B2
In the case of B3, the IC50 came to 9.69 nM in assay [1], 2.2 nM in assay [2] and 6.97 nM in assay [6]. The EC50 in assay [3] amounted to 38.9 nM; in assay [4], 10.9 nM; in assay [5], 67.7 nM.

B4: PCSK9-PKE2 tandem 4472_B09 (designed binder, not shown: small tags and cut ends)
PCSK9 10Fn3: MGVSDVPRDLEVVAATPTSLLISWDAPAEGYGYYRITYGETGGNSPVQEFTVPVSKGTATISGLKPGVDYTITVYAVEFDFPGAGYYHRPISINYRTE
PKE2 10Fn3: GVSDVPRDLEVVAATPTSLLISWDAPAVTVRYYRITYGREVQKYSDLGPLYIYQEFTVPGSKSTATISGLKPGVDYTITVYAVTGSGESPASSKPISINYRTEHHHHHH
modifications: The two parts are one polypeptide in the real molecule, joined by the undisclosed linker K; they are given here as separate chains.
Consider B4, for which the IC50 in assay [1] was 9.36 nM; in assay [2], 2.4 nM; in assay [6], 6.95 nM. For the same molecule, the EC50 in assay [3] was 45.1 nM; in assay [4] it was 9.8 nM; in assay [5], 69.2 nM.

B5: PCSK9-PKE2 tandem 4472_F04 (designed binder)
PCSK9 domain: MGVSDVPRDLEVVAATPTSLLISWDAPAEGYGYYRITYGETGGNSPVQEFTVPVSKGTATISGLKPGVDYTITVYAVEFDFPGAGYYHRPISINYRTE
PKE2 domain: GVSDVPRDLEVVAATPTSLLISWDAPAVTVRYYRITYGREVQKYSDLGPLYIYQEFTVPGSKSTATISGLKPGVDYTITVYAVTGSGESPASSKPISINYRTEHHHHHH
modifications: The real molecule is ONE polypeptide: PCSK9 domain, undisclosed linker D, PKE2 domain. It is given here as two chains because the linker letters are unknown.
notes: as for B2
Turning to B5, the half-maximal inhibitory concentration (IC50) in assay [1] is 3.99 nM; in assay [2], 1.2 nM; in assay [6] it was 4.18 nM. Also, the half-maximal effective concentration (EC50) in assay [3] was 27.8 nM; in assay [4], 3.8 nM; in assay [5], 40.3 nM.

B6: PCSK9-PKE2 tandem 4472_B11 (designed binder, not shown: small tags and cut ends)
PCSK9 10Fn3: MGVSDVPRDLEVVAATPTSLLISWDAPAEGYGYYRITYGETGGNSPVQEFTVPVSKGTATISGLKPGVDYTITVYAVEFDFPGAGYYHRPISINYRTE
PKE2 10Fn3: GVSDVPRDLEVVAATPTSLLISWDAPAVTVRYYRITYGREVQKYSDLGPLYIYQEFTVPGSKSTATISGLKPGVDYTITVYAVTGSGESPASSKPISINYRTEHHHHHH
modifications: The two parts are one polypeptide in the real molecule, joined by the undisclosed linker L; they are given here as separate chains.
B6: the half-maximal inhibitory concentration (IC50) was 6.54 nM in assay [1], 2 nM in assay [2] and 5.03 nM in assay [6]. Moreover, the half-maximal effective concentration (EC50) in assay [3] was 54 nM; in assay [4] it was 13.5 nM; in assay [5] it was 70.1 nM.

B7: PCSK9-PKE2 tandem 4472_F06 (designed binder)
PCSK9 domain: MGVSDVPRDLEVVAATPTSLLISWDAPAEGYGYYRITYGETGGNSPVQEFTVPVSKGTATISGLKPGVDYTITVYAVEFDFPGAGYYHRPISINYRTE
PKE2 domain: GVSDVPRDLEVVAATPTSLLISWDAPAVTVRYYRITYGREVQKYSDLGPLYIYQEFTVPGSKSTATISGLKPGVDYTITVYAVTGSGESPASSKPISINYRTEHHHHHH
modifications: The real molecule is ONE polypeptide: PCSK9 domain, undisclosed linker 'G' (a code letter, not the residue), PKE2 domain. It is given here as two chains because the linker letters are unknown.
notes: as for B2
In the case of B7, the IC50 in assay [1] is 4.5 nM; in assay [2] it was 1.1 nM; in assay [6] it was 3.42 nM. For the same molecule, the half-maximal effective concentration (EC50) came out at 40.8 nM in assay [3], 11.3 nM in assay [4] and 58.9 nM in assay [5].

B8: PCSK9-PKE2 tandem 4472_G10 (designed binder)
PCSK9 domain: MGVSDVPRDLEVVAATPTSLLISWDAPAEGYGYYRITYGETGGNSPVQEFTVPVSKGTATISGLKPGVDYTITVYAVEFDFPGAGYYHRPISINYRTE
PKE2 domain: GVSDVPRDLEVVAATPTSLLISWDAPAVTVRYYRITYGREVQKYSDLGPLYIYQEFTVPGSKSTATISGLKPGVDYTITVYAVTGSGESPASSKPISINYRTEHHHHHH
modifications: The real molecule is ONE polypeptide: PCSK9 domain, undisclosed linker H (a code letter), PKE2 domain. It is given here as two chains because the linker letters are unknown.
notes: as for B2
For B8, the results for the IC50 in assay [1], in assay [2] and in assay [6] were 7.81 nM, 2.4 nM and 6.81 nM, respectively. In addition, the EC50 in assay [3] was determined as 48.3 nM; in assay [4] it was 10 nM; in assay [5], 61.3 nM.

B9: PCSK9-PKE2 tandem 4472_A11 (designed binder)
PCSK9 domain: MGVSDVPRDLEVVAATPTSLLISWDAPAEGYGYYRITYGETGGNSPVQEFTVPVSKGTATISGLKPGVDYTITVYAVEFDFPGAGYYHRPISINYRTE
PKE2 domain: GVSDVPRDLEVVAATPTSLLISWDAPAVTVRYYRITYGREVQKYSDLGPLYIYQEFTVPGSKSTATISGLKPGVDYTITVYAVTGSGESPASSKPISINYRTEHHHHHH
modifications: In the real molecule the two parts given here are one polypeptide, joined by the undisclosed linker B. They are written as two chains only because the linker has no letters.
notes: not shown: Linker 'B' joining ...NYRTE of the PCSK9 domain to GVSDV... of the PKE2 domain
For B9, the IC50 came out at 6.13 nM in assay [1], 1.4 nM in assay [2] and 3.76 nM in assay [6]. The results for the EC50 in assay [3], in assay [4] and in assay [5] were 15.7 nM, 3.9 nM and 26.9 nM, respectively.

B10: PCSK9-PKE2 tandem 4472_A06 (designed binder, not shown: small tags and cut ends)
PCSK9 10Fn3: MGVSDVPRDLEVVAATPTSLLISWDAPAEGYGYYRITYGETGGNSPVQEFTVPVSKGTATISGLKPGVDYTITVYAVEFDFPGAGYYHRPISINYRTE
PKE2 10Fn3: GVSDVPRDLEVVAATPTSLLISWDAPAVTVRYYRITYGREVQKYSDLGPLYIYQEFTVPGSKSTATISGLKPGVDYTITVYAVTGSGESPASSKPISINYRTEHHHHHH
modifications: The two parts are one polypeptide in the real molecule, joined by the undisclosed linker M; they are given here as separate chains.
B10: the IC50 is 9.06 nM in assay [1], 1.6 nM in assay [2] and 2.72 nM in assay [6]. The EC50 is 44.4 nM in assay [3], 8.6 nM in assay [4] and 77.8 nM in assay [5].

B11: PCSK9-PKE2 tandem 4472_H09 (designed binder)
PCSK9 domain: MGVSDVPRDLEVVAATPTSLLISWDAPAEGYGYYRITYGETGGNSPVQEFTVPVSKGTATISGLKPGVDYTITVYAVEFDFPGAGYYHRPISINYRTE
PKE2 domain: GVSDVPRDLEVVAATPTSLLISWDAPAVTVRYYRITYGREVQKYSDLGPLYIYQEFTVPGSKSTATISGLKPGVDYTITVYAVTGSGESPASSKPISINYRTEHHHHHH
modifications: The real molecule is ONE polypeptide: PCSK9 domain, undisclosed linker C, PKE2 domain. It is given here as two chains because the linker letters are unknown.
notes: as for B2
As to B11, the IC50 in assay [1] came out at 9.66 nM; in assay [2], 3 nM; in assay [6] it was 7.17 nM. In addition, the 50% effective concentration (EC50) in assay [3] is 26.8 nM; in assay [4], 4 nM; in assay [5], 27.8 nM.
